Test results: patent US9580733B2, “Methods of producing 6-carbon chemicals via methyl-ester shielded carbon chain elongation” (INVISTA North America S.á r.l., priority 2012, dated 2017)

Assay: Carboxylate reductase activity assay, adipate to adipate semialdehyde
Assay type: biochemical
Settings: enhanced by gene product of sfp, 2 mM adipate, room temperature, 20 min, vs empty vector control, FIG. 10
Protocol: A nucleotide sequence encoding a HIS-tag was added to the genes from Segniliparus rugosus and Segniliparus rotundus that encode the carboxylate reductases of SEQ ID NOs: 5 and 7, respectively (see FIGS. 7C and 7E), such that N-terminal HIS tagged carboxylate reductases could be produced. Each of the modified genes was cloned into a pET Duet expression vector along with a sfp gene encoding a HIS-tagged phosphopantetheine transferase from Bacillus subtilis, both under the T7 promoter. Each expression vector was transformed into a BL21[DE3] E. coli host and the resulting recombinant E. coli strains were cultivated at 37° C. in a 250 mL shake flask culture containing 50 mL LB media and antibiotic selection pressure, with shaking at 230 rpm. Each culture was induced overnight at 37° C. using an auto-induction media.
The pellet from each induced shake flask culture was harvested via centrifugation. Each pellet was resuspended and lysed via sonication, and the cell debris was separated from the supernatant via centrifugation. […]
Enzyme activity assays (i.e., from adipate to adipate semialdehyde) were performed in triplicate in a buffer composed of a final concentration of 50 mM HEPES buffer (pH=7.5), 2 mM adipate, 10 mM MgCl2, 1 mM ATP and 1 mM NADPH. […] The consumption of NADPH was monitored by absorbance at 340 nm.

B1: SEQ ID NO 5: Segniliparus rugosus carboxylate reductase (Genbank Accession No. EFV11917.1) (protein, listed as Segniliparus rugosus)
chain: MGDGEERAKRFFQRIGELSATDPQFAAAAPDPAVVEAVSDPSLSFTRYLDTLMRGYAERPALAHRVGAGYETISYGELWARVGAIAAAWQADGLAPGDFVATVGFTSPDYVAVDLAAARSGLVSVPLQAGASLAQLVGILEETEPKVLAASASSLEGAVACALAAPSVQRLVVFDLRGPDASESAADERRGALADAEEQLARAGRAVVVETLADLAARGEALPEAPLFEPAEGEDPLALLIYTSGSTGAPKGAMYSQRLVSQLWGRTPVVPGMPNISLHYMPLSHSYGRAVLAGALSAGGTAHFTANSDLSTLFEDIALARPTFLALVPRVCEMLFQESQRGQDVAELRERVLGGRLLVAVCGSAPLSPEMRAFMEEVLGFPLLDGYGSTEALGVMRNGIIQRPPVIDYKLVDVPELGYRTTDKPYPRGELCIRSTSLISGYYKRPEITAEVFDAQGYYKTGDVMAEIAPDHLVYVDRSKNVLKLSQGEFVAVAKLEAAYGTSPYVKQIFVYGNSERSFLLAVVVPNAEVLGARDQEEAKPLIAASLQKIAKEAGLQSYEVPRDFLIETEPFTTQNGLLSEVGKLLRPKLKARYGEALEARYDEIAHGQADELRALRDGAGQRPVVETVVRAAVAISGSEGAEVGPEANFADLGGDSLSALSLANLLHDVFEVEVPVRIIIGPTASLAGIAKHIEAERAGASAPTAASVHGAGATRIRASELTLEKFLPEDLLAAAKGLPAADQVRTVLLTGANGWLGRFLALEQLERLARSGQDGGKLICLVRGKDAAAARRRIEETLGTDPALAARFAELAEGRLEVVPGDVGEPKFGLDDAAWDRLAEEVDVIVHPAALVNHVLPYHQLFGPNVVGTAEIIRLAITAKRKPVTYLSTVAVAAGVEPSSFEEDGDIRAVVPERPLGDGYANGYGNSKWAGEVLLREAHELVGLPVAVFRSDMILAHTRYTGQLNVPDQFTRLVLSLLATGIAPKSFYQQGAAGERQRAHYDGIPVDFTAEAITTLGAEPSWFDGGAGFRSFDVFNPHHDGVGLDEFVDWLIEAGHPISRIDDHKEWFARFETAVRGLPEAQRQHSLLPLLRAYSFPHPPVDGSVYPTGKFQGAVKAAQVGSDHDVPHLGKALIVKYADDLKALGLL
carboxylate reductase activity for converting adipate to adipate semialdehyde (consumption of NADPH, absorbance at 340 nm): accepted adipate as substrate
